Reference: patent US20250277032A1 (published 2025)
Changes are numbered by the printed parent chain.

B1: h5E5-42 (antibody, V domains shown)
VH: QVQLVQSGAEVKKPGASVKVSCKASGYSFSGFYIDWVKQPPGKGLEWIGYIFPSNGETSYNQKFKGRVTMTVDKSTSTVYMELSSLRSEDTAVYYCARQAFYYFDYWGQGTTVTVSS
VL: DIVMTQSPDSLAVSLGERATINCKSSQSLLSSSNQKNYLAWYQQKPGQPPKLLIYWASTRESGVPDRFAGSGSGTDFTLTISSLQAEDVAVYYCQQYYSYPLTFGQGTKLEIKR
B2: h5E5-83 (antibody, V domains shown)
VH: B1 VH with Q1E, V68A
VL: DIVMTQSPDSLAVSLGERATINCKSSQSLLSSSNQKNYLAWYQQKPGQAPRLLIYWASTRESGVPDRFAGSGSGTDFTLTISSLQAEDVAVYYCQQYYSYPLTFGQGTKLEIKR
B3: h5E5-22 (antibody, V domains shown)
VH: B1 VH with Q1E, S30T, V68A
VL: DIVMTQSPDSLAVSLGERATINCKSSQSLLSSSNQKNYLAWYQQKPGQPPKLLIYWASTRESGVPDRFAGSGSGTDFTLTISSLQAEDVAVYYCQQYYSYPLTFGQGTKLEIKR
B4: h5E5-84 (antibody, V domains shown)
VH: B1 VH with Q1E, V68A
VL: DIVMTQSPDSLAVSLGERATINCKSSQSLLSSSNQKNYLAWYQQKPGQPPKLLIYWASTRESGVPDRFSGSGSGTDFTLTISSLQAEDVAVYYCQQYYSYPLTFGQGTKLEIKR
B5: h5E5-73 (antibody, V domains shown)
VH: B1 VH with S30T, Y106S
VL: B2 VL

Biological target: human ILT3 (binding and competition assays, construct not stated) (human, UniProt Q8NHJ6 22-259)
Test: binding to hILT3 (relative binding)

Binder | EC50 [µg/mL]
B1 | 0.05
B2 | 0.1
B3 | 0.08
B4 | 0.08
B5 | 0.09
